Assay results as given in the DeepSol protein solubility set.

Assay: soluble on expression in E. coli; label from the status in PepcDB or PDB records

Sequence | soluble on expression in E. coli
MSLNKQDKKWRVLVVDDDADVLTNTVYTLMDLKVLGRELDITTLGSATAAIELLERERDFAVILLDVVMEKPHAGLSLVTMIRHDFNMQMSRIILRTGNPGYAPERDITLKLEIDDYILKQTAVRDRIITAVIVAIRAYDQLQRLARLKDAMQQIICCSNQLLTTDEIDQFANVCMQYVAPIFGKNAGGGLAYAGMTVNQGIVPLTVMSATSEHESLIEPLNGIGVLPPNISVTKKKMTKALEQTNSIKTDKDWYIYIKVSLGRKVVLWLNKPDGFDEIDETLGKSFANTIKACLDREGHHHHHH | soluble
MSLNLNVLEIKSFVPAQDFTTSKQFYLSLGFELITEFGDVAYLRLGQCAFLLQNTHQRPHQGNTMMHLLVEDAQSWFDHVKTLQLEERFESKVTDLITQPWGMLEFCLVDPSDVLWRIGQRIGEGHHHHTTDPNSSSVDKLAAALEHHHHHH | soluble
MSLNLSKTLKHVYQEAKVSDLFPITHLNSPCIFESQSGLVGSVIKVNGAAFEIEEAETLNHQRFLLHQALVSLDSRFIIYVTTHRQKISCPLIGEFKPGFAKDLDERYQQRFKDKNLYKNTLYITVVLKGDDTSKTGSWLKWAKSLSIKGNSELSEHHREQSIQTLNRVVEQLQANLNPFEATILGKQDEVLGFSELLQFLGLVVNAGQTTSFKHPVCSPPIANSIPQTFKQEVKYPEGHLGQYLSSCQLLFGECIQFQGNTQKDCVFGAMLSLKKYPTNTASILLDSMLSLDCEFIATHTFAPIGRDSALDTISKKRSKLLSAEDKALSQTTALSDLEDGIASETLLLGAHHHTVMLLAPNKSLLDAAILEATKRYGSAGIVVVKETLGLEPAFWSQLPCNQHFITRASLITSQNFVDFCPLHNTQTGFSNENFLGGAVTLLETPSKTPVYFNYHARGSKTEGHHHHHH | soluble
MSLNNKGSGLTPAQALDKLDALYEQSVVALRNAIGNYITSGELPDENARKQGLFVYPSLTVTWDGSTTNPPKTRAFGRFTHAGSYTTTITRPTLFRSYLNEQLTLLYQDYGAHISVQPSQHEIPYPYVIDGSELTLDRSMSAGLTRYFPTTELAQIGDETADGIYHPTEFSPLSHFDARRVDFSLARLRHYTGTPVEHFQPFVLFTNYTRYVDEFVRWGCSQILDPDSPYIALSCAGGNWITAETEAPEEAISDLAWKKHQMPAWHLITADGQGITLVNIGVGPSNAKTICDHLAVLRPDVCYIGHCGGLRKVRPLADYVLAHAYLRDDHVLDAVLPPDIPIPSIAEVQRALYDATKLVSGRPGEEVKQRLRTGTVVTTDDRNWELRYSASALRFNLSRAVAIDMESATIAAQGYRFRVPYGTLLCVSDKPLHGEIKLPGQANRFYEGAISEHLQIGIRAIDLLRAEGDRLHSRKLRTFNEPPFREGHHHHHH | soluble
MSLNPSESRSIAALREIVESARPLSYIRSSEEQRVERLLKDAAQRFFSTKVPVWTWSLTEGLRCDDGAVDASASDPRAALDFIAAYQGPALFHLKDFHEPLRERADIRRRLRDLYGACFDQGKFVVISSPVRYIPEELGRSIMYIELTLPDLAELIGFLREEVHAVKALGGSADTDDATLTQIARALQGLTLDESRHAIRRALAAGGGLGADSLPALYEEKRLLVNRTGMIQYVADGTQIASVGGLEIMKKWLMERRELFQLRDSISAEIVPKGVLIMGVSGCGKSLSVKAIASAFGLPLYRIDMTEIFSGRHGSAEGAFVSACRMLEQIAPAVVWFDEIEMGVNSTESAGEQGRIFAFFLTWMQEKTSGLFVAATANRIDLLPAEMTRKGRFDEIFFVDLPLDDERVEIFRIHLERRGIDTTPFDLTRLIKITKGWVGAEVEQCVVSALTTAHLDNREVTVEDLLRAAGKIVPLSKTMKEQVDHIRSWAYNRAVRASEGHHHHHH | soluble
MSLNQLFCHPETITIKKAVYYDIAPIPLPTPFKDGTGGVRHASFFKGWMKIYDEDGFCGQGPAGPLMTDFFLPRMLNAPGKSNGEWMEYFWWEIRNFGYQSPYIPEMTNLDWLLLDLLANRAGLPLHRFLGADRDWACVYKGGGSVLLSDEALISDLQRFKDEGYKTTKFKIGGSGPDFSQDIRRLEKARQALGDGFGIAVDANQAWDAKTAFAFAKEAAPLGVAWLEEPVHAYDMDALRELRDLLDEAGIAMEIAMGESVRSYHTHVAYAEHGVDHLQPARLYCIAENMRVREYARRHGCRISTGGFTFQNAALGALYSEDELLEYHQPLNEVLVPYFSLVSEMKDGRFYLPDVPGLPVHLDFERLERDGLLRGIQFYYHKEGHHHHHH | soluble
MSLNRLDVMILKILAEADRPMGSGRIAELIEERFGEKYSTRSIRYRLQKMEERGLIRRVRRNDRVVGAEITEWGLTMLKTETSSERVGMYISLIEEMAYRCSFDPEVMKGKVVCNISVVKREHLDDFLDAVVETYRAGISPSPLVAVKEDLSDHDVEVGEDEVAVLTVCSVTIDGVLINRGIPVTPVCGGLLYLEDGEPLGMQEYIKYEGSTVDPLHVFVAKGMTQVERVLETGTGLVPANVRYVPWAALEDVEHVERELEKADIRGIVDVPKVEGEILGIPLPPRSLGIVAYGGLVPVALLEERGISTRTYPTRTLVEYSSLEDARRYEGHHHHHH | soluble
MSLNRPEADREALWKIVHDRCEFGYRRTGAYAPCTFVDEQSGTALYKADFDPYQFLLIPLARITGIEDPALRESAGRNYLYDAWAARFLVTARLNNSLPESDVVLTINPKNARTQDQLHIHISCSSPTTSAALRNVDTSEYVGWKQLPIDLGGRRFQGLAVDTKAFESRNLFRDIYLKVTADGKKMENASIAVANVAQDQFLLLLAEGTEDQPVAAETLQDHDCSITKSEGHHHHHH | not soluble
MSLNSEAKSRIACDIDFDRDGRQAGYARAPLSRNNSGWGTVEIPITVVKNGSGPTVLLTGGVHGDEYEGQIAISDLARRLRPEEVQGRVIMLPAVNMPAIQSDTRLSPVDGRDINRCFPGDPRGTFSQMLAHFLDSVILPMADISVDMHTAGHSYDSTPSTNMHYLADPALRARTLAAAEAFGAPHNVVFGGVDEGSTFTSCVERRGIVSLGTELGGWGRVNIEGVRIGKRGILNVLKHMGVIEGTPETAQRGGAAGTRHMMVREADAYVMAPRTGLFEPTHYVGEEVRTGETAGWIHFVEDVDTAPLELLYRRDGIVWFGAGPGRVTRGDAVAVVMEDYNDTWPQEGHHHHHH | soluble
MSLNSQEMVLGNAWLVLADRVIEHGWVAIADGVIAEVGEGDAPNGAKDMHGDLVMPGLVELHTDHLEAHYTPRPKVQWNPVAAVVSYDGQLATCGITTVLDSLRVWREEGAEEVDGQAIVLAGAISTARDAQLLRADHFLHLRCEIPMPNVVAEAKELIDRPDIRLMSLMDHTPGQRQFRDEEKLRDYYRGKGAGMTDAELDVMFARRVYCKENYADANMRAIVELAHRYEIPLASHDDTTPENVADAIRDRVAVAEFPTTLEAARELHQAGIDILMGAPNVVRGGSHSGNIAAIDLAHEGLLDILSSDYIPSSLLIAALQLPMRAPGIDLAAAIRTVTKAPAEAVGLNDRGEISKGKRADLIRVHVAHDVPAVRSVWREGQRVAEGHHHHHH | not soluble
MSLNSSEHKIRITPLGGLGEIGGNISVFETNKDAIIVDIGMSFPDGTMHGVDIIIPDFDYVRKIKDKIRGIVITHAHEDHIGAVPYFFKEFQFPIYATPLALGMISNKFEEHGLKAERKWFRPVEKRRVYEIGEFDIEWIHITHSIIDASALAIKTKAGTIIHTGDFKIDQTPIDGYPTDLGRLAYYGEEGVLCLLSDSTNSYKEGYTKSESSVGLTFDQIFARTKGRVIMSTFSSNIHRVYQAITYGLKYGRKVCVIGRSMERNLYTTMELGYIKLDRKIFIDADEVSKYKDNEVLIVTTGSQGETMSALYRMATDEHKFIKIKPTDQVIISAKAIPGNEASVSAVLDYLLKAGAKVAYQEFSEIHVSGHASIEEQKLMLTLTKPKFFLPVHGEYNHITKHKETAMKCGIPERNIYLMSDGDQVELEGHHHHHH | soluble
MSLNTGHASLAQWGMSCLQWQPEWSVLDIGCGGGANLLQILQRCPQGKAYGIDISPESVTFARKKNKKYLGTRCFIEQGGVHRLPYPDYAFDAVTAFETVYFWGNLQHAFTEVARVLKPGGSFLICCEISDPANKAWTGLVEGMEIHSCDELKAILSKSGFTDTAIFRTKKEELCLVSHRQTVRLEGHHHHHH | soluble
MSLNVFNTASDEDIKKGLASDVYFERTISAIGDKCNDLRVAMEATVSGPLDTWINFTGLDEVLKLLEGLDVDLYAIPEGTILFPRDANGLPVPFIRVEGRYCDFGMYETAILGFICQASGISTKASKVRLAAGDSPFFSFGIRRMHPAISPMIDRSAYIGGADGVSGILGAKLIDQDPVGTMPHALSIMLGDEEAWKLTLENTKNGQKSVLLIDTYMDEKFAAIKIAEMFDKVDYIRLDTPSSRRGNFEALIREVRWELALRGRSDIKIMVSGGLDENTVKKLREAGAEAFGVGTSISSAKPFDFAMDIVEVNGKPETKRGKMSGRKNVLRCTSCHRIEVVPANVQEKTCICGGSMQNLLVKYLSHGKRTSEYPRPKEIRSRSMKELEYFKDISEGHHHHHH | soluble
MSLPNCLQCQSEYVYEDGLLLICPMCAFEWTPGEEATEEEGLVVLDSNGVRLSDGDTITVVKDLKVKGAPKDLKQGTRVKNIRLVEGDHNIDCKIDGFGAMKLKSEFVKKI | not soluble
MSLPPKFWIIIIVKKIDQQSLENAYRLFESGDIHQIEIGSTKGLQQIHHYLFNGLYEFAGKIREQNISKGHFRFANALYLKEALGKIEQMPEDTFENIINKYVEMNIAHPFLEGNGRSTRIWLDLVLKKHLGKVVNWQNVDKTQYLQAMERSPINDLEIRFLLQANLTDDVNNREIIFKGIEQSYYYEGYEKEEGGSHHHHHH | soluble
MSLPRLDARLKLVAAEIRGKIHADIGSDHGHLLAALLSADRIERGIAVENKLQPYRNSSATLERLNAEVRLGEGMDVIEENEIDSLSICGMGGQSIVRILSEHPNRLPKQLVLQPNQAIASVRQWARDNGYWLTDEKCTGTKRRFEVLVFSRFGPPHDPVYQKLNEVGLDESMGLMFGPWFLLRKDERLLQRLAEEQRYLQSKQNLTQTSRARVETIRRLLSSDHFLSREGHHHHHH | soluble
MSLPYSSSGVGHNGFDKADLHIHTKCSDGLFTPEEIVHKAIHVGLKAISITDHDTVTGIDQAKPLALELGLELIPGVEMSSAYKGYDIHILGYFFDYQQSELKGYLDHCRLLRTERAERMVQKLAKMGVKIEIEQIIMKAQNGSVGRPHIAAVLQDEGFVKSFSEAFSKYLGSHSPAYVKSIETHPEEVIRLINEAGGLSFLAHPAQNVPDEILRQLISFGLDGLEIIHPSHDTYRQNYYREIANEYFLLFSGGSDYHGPKDHEDNFGQVWIPYEWVTKMKSRLAPAVKEGHHHHHH | soluble
MSLQCALYDAGRCRSCQWITQPIPEQLSAKTADLKNLLADFPVEEWCAPVSGPEQGFRNKAKMVVSGSVEKPLLGMLHRDGTPEDLCDCPLYPASFAPVFAALKPFIARAGLTPYNVARKRGELKYILLTESQSDGGMMLRFVLRSETKLAQLRKALPWLQAQLPQLKVITVNIQPVHMAIMEGETEIYLTEQQALVERFNDVPLWIRPQSFFQTNPAVASQLYATARDWVRQLPVKHMWDLFCGVGGFGLHCATPDMQLTGIEIALEAIACAKQSAAELGLTRLQFQALDSTQFATAQGEVPELVLVNPPRRGIGKPLCDYLSTMAPRFIIYSSCNAQTMAKDIRELPGYRIERVQLFDMFPHTAHYEVLTLLVKMEGHHHHHH | soluble
MSLQDTWGGKMNTLGDRVLLCNDKRSLPAAAVATPFLFESMLFSVCTRGYARLLIDSREIEVKEGELLVVMPRKTIEVIESSCFRAFHLCLDKEILALSAIRISGFISIINKLHSNEPFRPERMEKDFLTATLDLIRNALQNGGRHQEEIVIYLISSLFLFLDDMIADEVEKDCKHTRSETICRDFLLLVSEHHKEQHTVKFYADRLCLSSKHLALTIKTVMGQSASKVINSFIIQQAKSLLRYTDKTVQEIGYELNFSTQSFFGKYFKQHTGMSPGEYRSQEARNRQSEES | not soluble
